{"source": "paper PMC6763467", "about": "(2019)", "parents": {"B1": {"name": "E. coli MtlR fused with His6-tag (ecHisMtlR), wild type [E. coli] / E. coli histidine phosphocarrier protein HPr (dephosphorylated, untagged) [E. coli] (parent complex)", "chain 1": "MVDQAQDTLRPNNRLSDMQATMEQTQAFENRVLERLNAGKTVRSFLITAVELLTEAVNLLVLQVFRKDDYAVKYAVEPLLDGDGPLGDLSVRLKLIYGLGVINRQEYEDAELLMALREELNHDGNEYAFTDDEILGPFGELHCVAALPPPPQFEPADSSLYAMQIQRYQQAVRSTMVLSLTELISKISLKKAFQK", "chain 2": "not shown"}}}
{"variants_of": "B1", "assay": "His-tag pull-down (Talon metal affinity resin), SDS-PAGE band densitometry; 200 μg His-MtlR, 200 μg HPr, 20 μl EI-overproducing cell lysate, 2 mM MgCl2, 50 μl Talon resin; no PEP", "units": {"percent of parent": "%"}}
{"variant": "chain 1 E140S", "percent of parent": 68}
{"variant": "chain 1 E108S, chain 1 E140S", "percent of parent": 35}
{"variant": "chain 1 E108S", "percent of parent": 65}
{"variants_of": "B1", "assay": "His-tag pull-down (Talon metal affinity chromatography), SDS-PAGE band densitometry; 200 μg His-MtlR, 200 μg HPr; 20 mM Tris-HCl (pH 7.5), 50 mM NaCl, 2 mM β-mercaptoethanol, 5% glycerol; wash 10 mM imidazole, elution 150 mM imidazole", "units": {"percent of parent": "%"}}
{"variant": "chain 1 E140S", "percent of parent": 67}
{"variant": "chain 1 A115W", "percent of parent": 45}
{"variant": "chain 1 L112W", "percent of parent": 95}
{"variant": "chain 1 L112A", "percent of parent": 47}
{"variant": "chain 1 E108S", "percent of parent": 76}
